Sequences and labels used below:
B1: MATN2 (parent)
chain: TDDSYSCHCLKGFTLNPDKKTCRR
B2: FBXO39 (parent)
chain: PSRVHASEVESAVWYVKKFGRYLE

The record followed here is the supplement of paper PMC10567573.
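Note: lentivirally expressed fusions sorted by FACS into six bins by GFP to DsRed ratio, PSI derived from sequencing read proportions per bin multiplied by bin number.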

The variants in the first data set derive from B1. Briefly: protein stability index of a GFP-peptide fusion (GPS, HEK-293T) (PSI 1-6); higher = more stable. The settings on record: c terminus: a fixed tail appended.
Turning to TDDSYSCMCLKGFTLNPDKKTCRR, the protein stability index was found to be 2.92.

Consider TDDSYSCWCLKGFTLNPDKKTCRR, for which the protein stability index stood at 2.63.

TDDSYSCACLKGFTLNPDKKTCRR: the protein stability index came out at 1.66.

For TDDSYSCGCLKGFTLNPDKKTCRR, the protein stability index came to 2.76.

Turning to TDDSYSCSCLKGFTLNPDKKTCRR, the protein stability index was 2.3.

As to TDDSYSCDCLKGFTLNPDKKTCRR, the protein stability index turned out to be 2.05.

For the variant TDDSYSCYCLKGFTLNPDKKTCRR, the protein stability index was determined as 2.71.

TDDSYSCPCLKGFTLNPDKKTCRR: the protein stability index stood at 1.63.

Take TDDSYSCCCLKGFTLNPDKKTCRR: the protein stability index was 2.05.

Consider TDDSYSCKCLKGFTLNPDKKTCRR, for which the protein stability index is 4.02.

As for TDDSYSCTCLKGFTLNPDKKTCRR, the protein stability index worked out at 2.08.

Take TDDSYSCVCLKGFTLNPDKKTCRR: the protein stability index turned out to be 2.33.

Consider TDDSYSCNCLKGFTLNPDKKTCRR, for which the protein stability index is 1.91.

With TDDSYSCLCLKGFTLNPDKKTCRR, the protein stability index was determined as 2.4.

With TDDSYSCFCLKGFTLNPDKKTCRR, the protein stability index turned out to be 2.14.

As for TDDSYSCECLKGFTLNPDKKTCRR, the protein stability index is 2.84.

In the case of TDDSYSNHCLKGFTLNPDKKTCRR, the protein stability index amounted to 4.38.

With TDDSYSRHCLKGFTLNPDKKTCRR, the protein stability index turned out to be 3.88.

For the variant TDDSYSTHCLKGFTLNPDKKTCRR, the protein stability index turned out to be 4.54.

As for TDDSYSSHCLKGFTLNPDKKTCRR, the protein stability index worked out at 4.54.

As to TDDSYSWHCLKGFTLNPDKKTCRR, the protein stability index is 3.21.

Take TDDSYSIHCLKGFTLNPDKKTCRR: the protein stability index was 3.9.

TDDSYSKHCLKGFTLNPDKKTCRR: the protein stability index is 4.21.

Take TDDSYSHHCLKGFTLNPDKKTCRR: the protein stability index was determined as 3.54.

TDDSYSQHCLKGFTLNPDKKTCRR: the protein stability index was 4.27.

Turning to TDDSYSDHCLKGFTLNPDKKTCRR, the protein stability index worked out at 4.78.

With TDDSYSFHCLKGFTLNPDKKTCRR, the protein stability index stood at 3.96.

Consider TDDSYSAHCLKGFTLNPDKKTCRR, for which the protein stability index came out at 4.59.

For the variant TDDSYSVHCLKGFTLNPDKKTCRR, the protein stability index was determined as 4.28.

For the variant TDDSYSLHCLKGFTLNPDKKTCRR, the protein stability index came to 4.59.

With TDDSYSEHCLKGFTLNPDKKTCRR, the protein stability index was determined as 4.61.

In the case of TDDSYSPHCLKGFTLNPDKKTCRR, the protein stability index amounted to 3.65.

On to TDDSYSYHCLKGFTLNPDKKTCRR, for which the protein stability index stood at 3.71.

Consider TDDSYSGHCLKGFTLNPDKKTCRR, for which the protein stability index came out at 4.45.

With TDDSYSMHCLKGFTLNPDKKTCRR, the protein stability index stood at 4.22.

For the variant TDDSYSCHGLKGFTLNPDKKTCRR, the protein stability index came out at 4.47.

For the variant TDDSYSCHSLKGFTLNPDKKTCRR, the protein stability index stood at 4.48.

Regarding TDDSYSCHRLKGFTLNPDKKTCRR, the protein stability index worked out at 3.88.

As to TDDSYSCHELKGFTLNPDKKTCRR, the protein stability index came out at 4.37.

On to TDDSYSCHALKGFTLNPDKKTCRR, for which the protein stability index stood at 4.6.

Regarding TDDSYSCHPLKGFTLNPDKKTCRR, the protein stability index came out at 4.53.

Turning to TDDSYSCHLLKGFTLNPDKKTCRR, the protein stability index worked out at 3.93.

With TDDSYSCHHLKGFTLNPDKKTCRR, the protein stability index stood at 3.75.

As to TDDSYSCHWLKGFTLNPDKKTCRR, the protein stability index is 3.79.

Consider TDDSYSCHFLKGFTLNPDKKTCRR, for which the protein stability index was determined as 3.47.

For TDDSYSCHKLKGFTLNPDKKTCRR, the protein stability index amounted to 4.03.

As to TDDSYSCHILKGFTLNPDKKTCRR, the protein stability index is 3.77.

As to TDDSYSCHTLKGFTLNPDKKTCRR, the protein stability index came out at 3.24.

For the variant TDDSYSCHVLKGFTLNPDKKTCRR, the protein stability index was 3.73.

Regarding TDDSYSCHMLKGFTLNPDKKTCRR, the protein stability index was 3.96.

TDDSYSCHNLKGFTLNPDKKTCRR: the protein stability index was 4.57.

Take TDDSYSCHQLKGFTLNPDKKTCRR: the protein stability index was found to be 4.1.

In the case of TDDDYSCHCLKGFTLNPDKKTCRR, the protein stability index was 2.

Turning to TDDQYSCHCLKGFTLNPDKKTCRR, the protein stability index stood at 2.3.

For the variant TDDWYSCHCLKGFTLNPDKKTCRR, the protein stability index was determined as 1.81.

As to TDDPYSCHCLKGFTLNPDKKTCRR, the protein stability index is 2.64.

As to TDDNYSCHCLKGFTLNPDKKTCRR, the protein stability index worked out at 1.23.

Regarding TDDMYSCHCLKGFTLNPDKKTCRR, the protein stability index turned out to be 2.22.

Take TDDTYSCHCLKGFTLNPDKKTCRR: the protein stability index was 2.04.

TDDYYSCHCLKGFTLNPDKKTCRR: the protein stability index is 1.77.

On to TDDGYSCHCLKGFTLNPDKKTCRR, for which the protein stability index turned out to be 1.88.

In the case of TDDHYSCHCLKGFTLNPDKKTCRR, the protein stability index turned out to be 2.66.

Consider TDDAYSCHCLKGFTLNPDKKTCRR, for which the protein stability index worked out at 1.34.

On to TDDVYSCHCLKGFTLNPDKKTCRR, for which the protein stability index amounted to 2.22.

With TDDIYSCHCLKGFTLNPDKKTCRR, the protein stability index was determined as 2.87.

As to TDDRYSCHCLKGFTLNPDKKTCRR, the protein stability index was found to be 2.03.

Consider TDDFYSCHCLKGFTLNPDKKTCRR, for which the protein stability index was 1.83.

As for TDDKYSCHCLKGFTLNPDKKTCRR, the protein stability index was 2.56.

As for TDDEYSCHCLKGFTLNPDKKTCRR, the protein stability index was 2.79.

Turning to TDDCYSCHCLKGFTLNPDKKTCRR, the protein stability index was found to be 1.8.

As for TDDLYSCHCLKGFTLNPDKKTCRR, the protein stability index came to 1.84.

In a further data set the parent is B2. The data set is described as above. Particulars: c terminus: a fixed tail appended.
With PSRVHASEVESAVWYVKKFGRYVE, the protein stability index was 2.49.

Regarding PSRVHASEVESAVWYVKKFGRYTE, the protein stability index stood at 2.32.

Turning to PSRVHASEVESAVWYVKKFGRYWE, the protein stability index was determined as 2.08.

With PSRVHASEVESAVWYVKKFGRYYE, the protein stability index turned out to be 2.53.

Turning to PSRVHASEVESAVWYVKKFGRYLS, the protein stability index worked out at 1.83.

For the variant PSRVHASEVESAVWYVKKFGRYLC, the protein stability index is 2.42.

PSRVHASEVESAVWYVKKFGRYLA: the protein stability index came to 1.59.

In the case of PSRVHASEVESAVWYVKKFGRYLY, the protein stability index was found to be 2.2.

For the variant PSRVHASEVESAVWYVKKFGRYLR, the protein stability index worked out at 2.22.

Take PSRVHASEVESAVWYVKKFGRYLD: the protein stability index was 1.9.

Take PSRVHASEVESAVWYVKKFGRYLG: the protein stability index is 1.94.

In the case of PSRVHASEVESAVWYVKKFGRYLM, the protein stability index came to 2.07.

As for PSRVHASEVESAVWYVKKFGRYLL, the protein stability index worked out at 1.54.

Consider PSRVHASEVESAVWYVKKFGRYLT, for which the protein stability index was 2.55.

Take PSRVHASEVESAVWYVKKFGRYLN: the protein stability index worked out at 2.06.

For PSRVHASEVESAVWYVKKFGRYLK, the protein stability index came to 2.13.

With PSRVHASEVESAVWYVKKFGRYLF, the protein stability index was determined as 1.94.

In the case of PSRVHASEVESAVWYVKKFGRYLV, the protein stability index came to 1.74.

Regarding PSRVHASEVESAVWYVKKFGRYLP, the protein stability index is 2.26.

In the case of PSRVHASEVESAVWYVKKFGRYLH, the protein stability index came to 1.94.

In the case of PSRVHASEVESAVWYVKKFGRYLQ, the protein stability index was 1.99.

Take PSRVHASEVESAVWYVKKFGRYLW: the protein stability index stood at 2.33.

As for PSRVHASEVESAVWYVKKFGRYLI, the protein stability index worked out at 2.01.
